Measurements as given in patent US20260131000A1 (Memorial Sloan Kettering, published 2026).

Tests used:
[1] = target: L1CAM endogenously expressed on MCF-7 and MDA-MB-231 cells (UniProt P32004); test: flow cytometry, MCF-7 cells
[2] = target: L1CAM endogenously expressed on MCF-7 and MDA-MB-231 cells (UniProt P32004); test: flow cytometry, MDA-MB-231 cells
[3] = target: human L1CAM overexpressed on HEK293T cells (human, UniProt P32004 20-1257); test: flow cytometry on HEK293T cells overexpressing L1CAM (panel HEK293T-L1CAM), GMFI ratio to 2nd only against log[Fab], nM
Text: A total of 11 humanized 76H12 Fab variants (Fabs 2-12) were generated in addition to a chimeric 76H12 Fab (Fab 1) containing the parental murine VH and VL sequences. The chimeric Fab served as the benchmark for comparative assessment of humanized Fab variants. […] All humanized variants bound to the L1CAM overexpressing cells, with most binding comparably to the chimeric 76H12 Fab. […] Here, recombinant L1CAM-Fc fusion protein was immobilized onto anti-Human IgG Fc Capture (AHC) biosensors and binding of Fabs was measured kinetically over a 3-200 nM concentration range. Kinetic data were fitted to a 1:1 binding model to compute association (kₒₙ) and dissociation (koff) rate constants, in addition to equilibrium dissociation constants (KD) as shown in Table 59. […] From these, Fab 3 represents the preferred humanized variant given higher identity to human germline IGHV1-46 and IGKV1-39 sequences resulting from fewer human-to-murine framework back mutations.

Chain of human L1CAM overexpressed on HEK293T cells (P32004 20-1257): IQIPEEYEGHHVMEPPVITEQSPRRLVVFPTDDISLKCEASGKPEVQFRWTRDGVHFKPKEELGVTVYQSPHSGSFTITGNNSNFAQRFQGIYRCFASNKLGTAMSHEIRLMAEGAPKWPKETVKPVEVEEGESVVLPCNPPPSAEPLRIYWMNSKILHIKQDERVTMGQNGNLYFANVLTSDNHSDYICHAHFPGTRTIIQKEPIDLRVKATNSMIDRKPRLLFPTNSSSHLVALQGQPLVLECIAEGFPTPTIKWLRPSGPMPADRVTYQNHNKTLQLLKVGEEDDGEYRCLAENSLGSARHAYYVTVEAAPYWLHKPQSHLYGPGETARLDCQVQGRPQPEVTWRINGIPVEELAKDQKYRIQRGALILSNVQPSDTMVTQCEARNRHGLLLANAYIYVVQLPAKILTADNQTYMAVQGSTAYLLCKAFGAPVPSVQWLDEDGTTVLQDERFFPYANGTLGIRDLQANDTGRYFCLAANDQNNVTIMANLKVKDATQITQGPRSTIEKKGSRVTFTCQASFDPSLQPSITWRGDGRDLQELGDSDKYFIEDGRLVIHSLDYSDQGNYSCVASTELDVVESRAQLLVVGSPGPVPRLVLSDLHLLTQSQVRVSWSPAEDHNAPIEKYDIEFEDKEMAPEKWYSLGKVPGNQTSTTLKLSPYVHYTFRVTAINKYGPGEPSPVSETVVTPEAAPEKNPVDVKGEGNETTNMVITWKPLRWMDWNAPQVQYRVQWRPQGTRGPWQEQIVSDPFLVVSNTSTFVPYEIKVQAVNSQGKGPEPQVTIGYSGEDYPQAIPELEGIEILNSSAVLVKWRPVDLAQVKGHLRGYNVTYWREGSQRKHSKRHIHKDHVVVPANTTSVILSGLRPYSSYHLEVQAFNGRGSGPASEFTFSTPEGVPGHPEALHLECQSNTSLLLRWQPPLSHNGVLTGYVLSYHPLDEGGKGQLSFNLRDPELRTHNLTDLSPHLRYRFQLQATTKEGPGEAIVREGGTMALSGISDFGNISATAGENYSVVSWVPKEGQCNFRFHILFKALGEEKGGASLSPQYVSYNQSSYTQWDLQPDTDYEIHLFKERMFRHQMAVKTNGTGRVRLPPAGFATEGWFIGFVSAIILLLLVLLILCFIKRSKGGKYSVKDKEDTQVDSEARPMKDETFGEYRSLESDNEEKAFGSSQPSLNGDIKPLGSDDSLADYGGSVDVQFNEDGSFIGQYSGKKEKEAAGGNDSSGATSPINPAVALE

B1: 143G03 (antibody, V domains shown)
VH: QVQLRQSGAELVRPGTSVKMSCKASGYTFTNYYIHWVKQRPGQGLEWIGKIGPGSGSPYYNGMFKDKATLTVDTSSSTAYMQLSSLTSEDSAVYFCARWLLPFDYWGQGTTLTVSS
VL: QIVLSQSPGILSASPGEKVTMTCRASSSVNYMHWYQQKSGSSPKPWIFATSILASGVPPRFSGSGSGTSYSLTISSVEAEDTATYYCQQFSSDPLTFGAGTKLELK
**Q.** With B1 as the binder, how does the EC50 [1] read?
**A.** 0.35 nM

**Q.** And the EC50 [2]?
**A.** 0.9 nM

B2: 13F04 (antibody, V domains shown)
VH: QVQLQQPGAELVKPGASVKLSCKASGYIFISYWMHWVKQRPGQGLEWIGEINPRNGRTNYNEKFKSKATLTVDKSSSTAYMQLTSLTSEDSAVYYCARGGDYGGSFDYWGQGTTLTVSS
VL: DIVLTQSPASLAVSLGQRATISCRASESVDSYGNSFMHWYQQKPGQPPKLLIYRASNLESGIPARFSGSGSRTDFTLTVNPVEADDVATYYCQQSNEDPWTFGGGTKLEIK
**Q.** B2 was tested. Which EC50 [1] did it give?
**A.** 1.2 nM

**Q.** And the EC50 [2]?
**A.** 1.7 nM

B3: Fab Construct 1 (chimeric 76H12 Fab, parental mouse 76H12 V-regions) (Fab, V domains shown)
VH: QVQLQQPGSDLVRPGTSVKLSCKASGYTFTSYWMHWVKQRPGQGLEWIGNVYPGSGSTKYDEKFKTKATLTVDTSSNTAYMELSSLTSEDSAVYYCTRPGNYEGFAYWGQGTLVTVSA
VL: NIVLTQSPASLAVSLGQRATISCRASESVDSYGSSFMHWYQQKPGQPPKLLIYLASNLESGVPARFSGSGSRTDFTLTIDPVEADDAATYYCQQNNEDPWTFGGGTKLEIK
notes: domain: CH1; also called Fab 1; chimeric Fab; not shown: constant region of human kappa light chain
**Q.** With B3 as the binder, how does the “EC50 (read off the curve)” value [3] read?
**A.** ~70 nM

B4: Fab Construct 2 (humanized 76H12 Fab) (Fab, V domains shown)
VH: QVQLVQSGAEVKKPGASVKVSCKASGYTFTSYWMHWVRQAPGQGLEWMGNVYPGSGSTKYAQKFQGRVTMTRDTSTSTVYMELSSLRSEDTAVYYCARPGNYEGFAYWGQGTLVTVSS
VL: NIQLTQSPSSLSASVGDRVTITCRASESVDSYGSSFMHWYQQKPGKPPKLLIYLASNLESGVPSRFSGSGSGTDFTLTISSLQPEDFATYYCQQNNEDPWTFGQGTKLEIK
notes: domain: CH1; also called Fab 2; h76H12_Hv0/h76H12_Lv3; not shown: constant region of human kappa light chain
**Q.** How did the “EC50 (read off the curve)” value [3] turn out when B4 was run?
**A.** ~200 nM

B5: 14A10 (antibody, V domains shown)
VH: EVQMVESGGGLVQPGGSLRLSCAAPGFIFSSYNMNWVRQAPGKGLEWVSYISSSSSTTYYADSVKGRFTISRDNAKNSLYLQMNSLRDEDTAVYYCASLYSGYDYYYYYGMDVWGQGTTVTVSS
VL: DIVMTQTPLSSPVSLGQPASISCRSSQSLVHSDGNTYLSWLQQRPGQPPRVLIYKISKRFSGVPDRFSGSGAGTDFTLKISRVEAEDVGVYYCMQATQFPFTFGPGTKVDIK
**Q.** For B5, which EC50 [1] is on record?
**A.** 5.3 nM

**Q.** What about the EC50 [2] of the same binder?
**A.** 8.9 nM

B6: 13G04 (antibody, V domains shown)
VH: QVQLVQSGAEVKKPGASVKVSCKASGYTFIGYYLHWVRQAPGQGLEWMGWINPNSGGTNSAQKFQGRVTMTRDTSISTTYMDLSRLRSDDTAVYYCARGGLERRDAFDIWGQGTLVTVSS
VL: DIQMTQSPSTLSASVGDRVTITCRASQSISNWLAWYQQKPGKAPNLLIYKASSLESGVPSRFSGSGSGTEFTLTISSLQPDDFATYYCQQYDTYRTFGQGTKVEIK
**Q.** What does the source list for B6?
**A.** EC50 [1]: 4.8 nM; EC50 [2]: 6.7 nM
